Patent US20050048527, “Endonuclease-substrate complexes” (Third Wave Technologies, Inc., published 2005)
Changes are numbered by the printed parent chain.

Legend:
Pfu Y33A FEN1 = molecular target: T1, Pfu Y33A FEN1 (Pyrococcus furiosus, UniProt O93634 SEQ:1-340, Y33A); experiment: cleavage_in_vitro; rate vs Pfu FEN1; conditions: label: 5'-biotin target; 5'-TET probe; hairpin target-INVADER with overlapping probe flap
T1 sequence: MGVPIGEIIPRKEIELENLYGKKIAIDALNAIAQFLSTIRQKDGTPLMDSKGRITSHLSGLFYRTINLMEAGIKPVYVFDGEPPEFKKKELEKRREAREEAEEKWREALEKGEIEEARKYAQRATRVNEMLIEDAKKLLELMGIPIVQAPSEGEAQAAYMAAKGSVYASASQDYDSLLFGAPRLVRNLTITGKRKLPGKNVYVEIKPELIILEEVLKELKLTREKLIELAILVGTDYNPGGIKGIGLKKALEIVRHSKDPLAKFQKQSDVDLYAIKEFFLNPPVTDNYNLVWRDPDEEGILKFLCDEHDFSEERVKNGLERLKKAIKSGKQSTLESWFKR
Protocol: (§1) For the evaluation of chimeric enzymes, standard tests were performed to measure the performance and specificity of the enzymes. […] 10 μl reactions are run at 59 C for between 5 to 60 minutes depending on the enzyme. Reactions are stopped by the addition of 10 μl of 95% formamide, 0.02% methyl violet. 1 μl of the mixture is run on a denaturing 20% acrylamide gel and electrophoresed for 15 minutes or until good separation is achieved between cleaved and uncleaved probe. The gels are scanned using an FMBIO fluorescent gel scanner and the bands are quantified with FMBIOAnalysis software. Cleavage rates are determined from the percent probe cleaved. Cleavage rate for the INVADER substrate is defined as the number of probe molecules cleaved per target molecule per minute. In Table 5, below, the cleavage rates for the mutant enzymes are compared to the cleavage rates for unmodified Pfu FEN1 enzyme on the INVADER assay and X-structure substrates.
(§2) The X-structure substrate is used to determine the amount of background cleavage an enzyme will carry out in an INVADER reaction. It mimics the structure created by uncut primary probe and secondary FRET cassette in the INVADER squared reaction. […] 10 μl reactions are run at 59 C for between 3 to 30 minutes depending on the enzyme. Reactions are stopped by the addition of 10 μl of 95% formamide, 0.02% methyl violet. 1 μl of the mixture is run on a denaturing 20% acrylamide gel and electophoresed for 15 minutes or until good separation is achieved between cleaved and uncleaved probe. The gels are scanned using an FMBIO fluorescent gel scanner and the bands are quantified with FMBIOAnalysis software. Cleavage rates are determined from the percent probe cleaved.

Pfu Y33F FEN1 = molecular target: T2, Pfu Y33F FEN1 (Pyrococcus furiosus, UniProt O93634 SEQ:1-340, Y33F); experiment: cleavage_in_vitro; rate vs Pfu FEN1; conditions: label: 5'-biotin target; 5'-TET probe; hairpin target-INVADER with overlapping probe flap
T2 sequence: T1 sequence with A33F
Protocol: as §1, §2

B1: INVADER substrate 594-12-1/203-91-1 (structured_DNA)
DNA 1: TTTTTCACGGCAGTTGGTGCGCCTCGGAACGAGGCGCACA
DNA 2: TTTTCAACTGCCGTGA
cleavage rate (Pfu Y33A FEN1): 0.05 | cleavage rate (Pfu Y33F FEN1): 0.96
